Assay [1] addresses BST2 as expressed endogenously on the surface of human cell lines (B-LCL, MM1, U266, MCF-10A, MCF7, MDA-MB-231, T47D) (human) (UniProt Q10589). Nature of the assay: flow cytometry on MM1 cells, mAb 1 ug/ml. A general note: In flow cytometry, cells or beads pass a laser one at a time.
Assay [2] shares this target. Nature of the assay: flow cytometry on MCF7 cells, mAb 1 ug/ml.
Assay [3] has the same target. Nature of the assay: flow cytometry on T47D cells, mAb 1 ug/ml.
For assay [4] the target is unchanged. The assay can be described thus: flow cytometry on MM1 cells, mAb not preincubated.
For assay [5] the target is unchanged. Nature of the assay: flow cytometry on MM1 cells, mAb preincubated 10 min with Spartan protein (5 ug/ml).
Assay [6] shares this target. Nature of the assay: flow cytometry on MM1 cells, mAb preincubated 10 min with recombinant BST2 protein (5 ug/ml) as competitor.
Assay [7] shares this target. Nature of the assay: flow cytometry on MCF-10A cells, mAb 1 ug/ml.
Assay [8] has the same target. Nature of the assay: flow cytometry on MDA-MB-231 cells, mAb 1 ug/ml.
In assay [9] the target is T1, BST2 long isoform (BST2-D, full length BST2, 180 amino acids) expressed on HEK293 transfectants (human, UniProt Q10589 1-161).
T1 construct: also called HEK293-long; HEK293 WT-BST2
Nature of the assay: flow cytometry, hybridoma supernatant on HEK293-long cells. The procedure:
For flow cytometry assays, cells were detached using 0.05% trypsin-EDTA, counted, washed and resuspend with FACS Buffer (PBS, 2% FBS, 2 mM EDTA). 2×10⁵ cells in 100 ul/well were placed in U-bottom 96-well plate and centrifuged (1000 RPM/3 min/4° C.). The buffer was discarded and 100 ul of the previously collected supernatants with selected monoclonal antibodies were added to the wells and incubated on ice for 30 minutes. After incubation, the plate was washed three times with FACS buffer and 50 ul of diluted (1/250) secondary antibody (Donkey anti-mouse Allophycocyanin (APC) conjugated) were added to the wells and incubated on ice for 20 minutes protected from light. The final wash was repeated 4 times, and the samples were transferred and analyzed at the South Campus Flow Cytometry & Cell Sorting Core Laboratory at MD Anderson Cancer Center. FACS data were analyzed with FlowJo™ Software—for Windows (Version 10.6.1. Ashland, Oreg.: Becton, Dickinson and Company; 2020).

In assay [10] the target is BST2 as expressed endogenously on the surface of human cell lines (B-LCL, MM1, U266, MCF-10A, MCF7, MDA-MB-231, T47D) (human) (UniProt Q10589). The assay can be described thus: flow cytometry on B-LCL cells, mAb 1 ug/ml.
Assay [11] addresses T2, Recombinant human BST2 protein (Catalog number 13370-H07H, Sino Biological) (human, UniProt Q10589 49-161).
T2 construct: Bought soluble protein; also called full length recombinant BST2 protein; full-length BST2 protein
T2 sequence (looked up): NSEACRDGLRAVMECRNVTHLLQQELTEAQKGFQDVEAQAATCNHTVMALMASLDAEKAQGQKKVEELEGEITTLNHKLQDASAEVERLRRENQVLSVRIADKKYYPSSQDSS
Nature of the assay: BLI (Octet RED384), mAb 5 ug/ml captured on anti-mouse IgG Fc (AMC) biosensors, BST2 protein 15.625-1000 nM, 1:1 model, global fit. The method, then: Binding kinetics of the anti-BST2-long mAb clone LA5 was assessed, using Octet RED384 platform system. Briefly, antibodies were captured, as described under methods, by specific biosensors that bind the Fc region of the antibody. Based on prior experiments and certain standard operations procedures, 5 ug/ml was selected as the fixed concentration for the mAb. Various concentrations of the full length recombinant BST2 protein were used to assess the antibody affinity. The interaction was analyzed with a 1:1 binding model, involving both the association and the dissociation steps.
(In general: In BLI a coated tip is dipped into the sample, and binding shifts an interference pattern.)

Assay [12] addresses BST2 as expressed endogenously on the surface of human cell lines (B-LCL, MM1, U266, MCF-10A, MCF7, MDA-MB-231, T47D) (human) (UniProt Q10589). Nature of the assay: flow cytometry on U266 cells, mAb 1 ug/ml.
Assay [13] has as its target T3, Spartan protein (SprT-like domain-containing protein) (human, UniProt Q9H040 1-489, limits assumed).
T3 construct: Irrelevant protein control in the preincubation assay; also called Spartan irrelevant protein; irrelevant protein
T3 sequence (looked up): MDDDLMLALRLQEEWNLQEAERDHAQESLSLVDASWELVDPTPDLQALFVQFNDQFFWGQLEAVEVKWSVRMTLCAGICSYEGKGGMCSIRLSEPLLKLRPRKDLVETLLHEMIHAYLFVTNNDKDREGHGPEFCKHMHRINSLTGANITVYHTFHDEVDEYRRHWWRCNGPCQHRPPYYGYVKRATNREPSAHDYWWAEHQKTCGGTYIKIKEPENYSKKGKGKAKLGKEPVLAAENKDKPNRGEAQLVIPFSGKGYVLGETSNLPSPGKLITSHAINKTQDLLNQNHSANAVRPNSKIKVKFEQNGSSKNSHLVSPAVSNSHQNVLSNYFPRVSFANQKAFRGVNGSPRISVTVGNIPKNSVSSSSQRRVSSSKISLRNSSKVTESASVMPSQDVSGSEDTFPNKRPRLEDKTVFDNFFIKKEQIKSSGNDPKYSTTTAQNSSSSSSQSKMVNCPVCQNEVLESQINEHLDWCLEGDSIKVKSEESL
Nature of the assay: flow cytometry of MM1 cells after preincubation of the mAb with Spartan protein. The method, then: A specificity assay was performed and analyzed through flow cytometry staining of MM1, a multiple myeloma cell line. In this assay, changes in the binding of the LA5 mAb to the BST2 receptor expressed on MM1 cell lines were assessed after:
As part of the characterization of the selected antibody candidate, the inventors analyzed the specificity of the new antibody by flow cytometry staining of a cell line, constitutively expressing BST2, competing the antibody binding to the cells with a recombinant BST2 protein and an irrelevant target. Staining of MM1, a multiple myeloma cell line, was assessed at different conditions to test the binding specificity of the generated monoclonal antibodies. Anti-BST2-long (clone LA5) was pre-incubated with BST2 protein for 10 minutes, before being transferred to U-bottom wells plate containing MM1 cells. […] Alternatively, Spartan protein, or SprT-like domain-containing protein, a human DNA-binding metalloprotease with 489 amino acid length and involved in the response to DNA replication errors (34, 35) was used as an irrelevant protein.

B1: anti-BST2-long monoclonal antibody clone LA5 (antibody, mouse IgG1, V domains shown)
VH: EVQLQQSGAELVRSGASVNLSCTASGFNIKDYYIHWVKQRPERGLEWIGWIDPENGDTEYAPEFQGKASMTADTSSNTAYLQLSSLTSEDTAVYYCKRGDWGQGTLVTVSA
VL: DVLMTQTPLSLPVSLGDQASISCRSSQSIVHSNGNTYLEWFLQKPGQSPKLLIYKVSNRFSGVPDRFSGSGSGTDFTLKISRVEAEDLGVYYCFQGSHAPFTFGSGTELEIK
notes: Mouse hybridoma antibody; Used as hybridoma supernatant in the screening assays and as Protein A purified mAb afterwards; also called LA5 mAb; MAb LA5
For orientation: Kd means the equilibrium constant for the complex coming apart. What is called koff is the rate constant with which the complex falls apart. In general, kon refers to the second-order rate constant of association. On to B1, for which the percentage of cell staining in assay [1] worked out at 98.6%; in assay [2], 0.43%; in assay [3], 2.6%; in assay [7], 2.4%; in assay [8] it was 1%; in assay [10] it was 99.3%. In [12], this molecule displayed a percentage of cell staining of 96.1%. Besides, the results for the staining percentage of the MM1 cells in assay [4], in assay [5] and in [6] were 85.2%, 83.9% and 5.01%, respectively. Moreover, the “percentage of cells stained” value in assay [9] is 58.3%. In [11], the Kd turned out to be 4.61 nM. The koff in assay [11] came to 0.000921 s⁻¹. Further, in [11], the kon worked out at 200000 M⁻¹ s⁻¹. In [13], the binding result is “no binding (tested: 5 ug/ml)”.

For the origin of these results see patent US20230235074A1 (University of Texas, published 2023).
